Data reported in US12385058B2, “Herbicide tolerance protein, encoding gene thereof and use thereof” (Beijing Dabeinong Biotechnology Co., Ltd., priority 2018, dated 2025).

Columns and labels:
[1] = assay type: biochemical; details: for specific enzyme activity, bensulfuron-methyl / specific enzyme activity, chlorimuron-ethyl / specific enzyme activity, metsulfuron-methyl / specific enzyme activity, thifensulfuron-methyl / specific enzyme activity, tribenuron-methyl: 0.2 μg enzyme, 0.2 mM substrate, pH 7.0, 30° C., 20 min
Description: (§1) Each reaction was timed beginning with the addition of reactive enzyme, and was terminated with 1 mL of dichloromethane. The organic phase after delamination was dehydrated with anhydrous sodium sulfate.
(§2) The above dehydrated reaction solution was blown dry with nitrogen and filtered by adding 1 mL of methanol, and 20 μL of the filtrate was subjected to liquid chromatography-mass spectrometry (LC-MS). High performance liquid chromatography (HPLC) conditions were as follows: mobile phase being methanol:water (80:20, V/V), Zorbax XDB-C18 chromatographic column (3.5 μm, 2.1×50 mm, Agilent, USA), column temperature being room temperature, UV detector, with a detection wavelength of 255 nm, a sample injection volume of 20 μL, and a flow rate of 0.25 mL/min. The primary ion mass spectrometry conditions were as follows: ion detection mode being multi-reactive ion detection; ion polarity being negative ion; ionization mode being electrospray ionization; a capillary voltage of 4000 volts; a dry gas temperature of 330° C., a flow rate of 10 L/min, an atomizing gas pressure of 35 psi, a collision voltage of 135 volts; and a mass scan range of 300-500 m/z. The secondary ion mass spectrometry conditions were as follows: a collision voltage of 90 volts; a mass scanning range of 30-400 m/z, and other conditions being the same as those of the primary ion mass spectrometry. It was identified by LC-MS that the metabolite of thifensulfuron-methyl was thiophene sulfonic acid, and the metabolite of metsulfuron-methyl, chlorimuron-ethyl, bensulfuron-methyl, sulfometuron-methyl or tribenuron-methyl was its corresponding sulfonic acid. The amount of the generated thiophene sulfonic acid (metabolite) was detected using high performance liquid chromatography (HPLC).

[2] = Degradation of sulfometuron-methyl by purified herbicide tolerant proteins (enzymatic activity, HPLC); assay type: biochemical; details: 0.2 μg enzyme, 0.2 mM substrate, pH 7.0, 30° C., 20 min
Description: as §1, §2

B1: ALT04M1: herbicide tolerant protein, SEQ ID NO: 55; ALT04 with glycine to alanine at position 131 (protein)
chain: MSKRKVVLAEQGSFYIGGRTVTGPGKFDPSKPVIPYSNEGATFYINQMYVNFQAPVRPRGLPLVFWHGGGLTGHIWESTPDGRPGFQTLFVQDRHTVYTIDQPGRGRGNIPTFNGPFGQLEEESIVNTVTANSSKEGAWVRDRLGPAPGQFFENSQFPRGYEDNYFKEMGFSPSISSDEIVDAVVKLVTHIGPCVLVTHSASGVLGMRVATHAKNVRGIVAYEPATSIFPKGKVPEIPPLADKKSQIFPPFEIQESYFKKLAKIPIQFVFGDNIPKNPKSAYWFLDWWRVTRYAHSLSLEAINKLGGQASLLDLPTAGLRGNTHFPFTDRNNVQVASLLSDFLGKHGLDQ
modifications: the amino acid sequence of the ALT04M1
- efficiency of degrading bensulfuron-methyl, fold of ALT04 [1]: 1.9 fold
- efficiency of degrading thifensulfuron-methyl, fold of ALT04 [1]: 2.8 fold
- specific enzyme activity, bensulfuron-methyl [1]: 3.5 µmol/min/mg
- specific enzyme activity, chlorimuron-ethyl [1]: 9.4 µmol/min/mg
- specific enzyme activity, metsulfuron-methyl [1]: 2.0 µmol/min/mg
- specific enzyme activity, thifensulfuron-methyl [1]: 80.9 µmol/min/mg
- specific enzyme activity, tribenuron-methyl [1]: 2.8 µmol/min/mg
- specific enzyme activity, sulfometuron-methyl [2]: 4.9 µmol/min/mg

B2: ALT04M2: herbicide tolerant protein, SEQ ID NO: 59; ALT04 with serine to valine at position 133 (protein)
chain: MSKRKVVLAEQGSFYIGGRTVTGPGKFDPSKPVIPYSNEGATFYINQMYVNFQAPVRPRGLPLVFWHGGGLTGHIWESTPDGRPGFQTLFVQDRHTVYTIDQPGRGRGNIPTFNGPFGQLEEESIVNTVTGNVSKEGAWVRDRLGPAPGQFFENSQFPRGYEDNYFKEMGFSPSISSDEIVDAVVKLVTHIGPCVLVTHSASGVLGMRVATHAKNVRGIVAYEPATSIFPKGKVPEIPPLADKKSQIFPPFEIQESYFKKLAKIPIQFVFGDNIPKNPKSAYWFLDWWRVTRYAHSLSLEAINKLGGQASLLDLPTAGLRGNTHFPFTDRNNVQVASLLSDFLGKHGLDQ
modifications: the amino acid sequence of the ALT04M2
- efficiency of degrading bensulfuron-methyl, fold of ALT04 [1]: 1.2 fold
- efficiency of degrading thifensulfuron-methyl, fold of ALT04 [1]: 3.3 fold
- specific enzyme activity, bensulfuron-methyl [1]: 2.2 µmol/min/mg
- specific enzyme activity, chlorimuron-ethyl [1]: 8.1 µmol/min/mg
- specific enzyme activity, metsulfuron-methyl [1]: 1.1 µmol/min/mg
- specific enzyme activity, thifensulfuron-methyl [1]: 95.4 µmol/min/mg
- specific enzyme activity, tribenuron-methyl [1]: 9.7 µmol/min/mg
- specific enzyme activity, sulfometuron-methyl [2]: 3.2 µmol/min/mg

B3: ALT02: ALT02 protein (369 amino acids), SEQ ID NO: 19; unmutated herbicide tolerant protein (protein)
chain: METDNVELAQSKRKVVLAEQGSFYIGGRTVTGPGKFDPSKPVIPYSNEGATFYINQMYVNFQAPVRPRGLPLVFWHGGGLTGHIWESTPDGRPGFQTLFVQDRHTVYTIDQPGRGRGNIPTFNGPFGQLEEESIVNTVTGNSSKEGAWVRDRLGPAPGQFFENSQFPRGYEDNYFKEMGFSPSISSDEIVDAVVKLVTHIGPCVLVTHSASGVLGMRVATHAKNVRGIVAYEPATSIFPKGKVPEIPPLADKKSQIFPPFEIQESYFKKLAKIPIQFVFGDNIPKNPKSAYWFLDWWRVTRYAHSLSLEAINKLGGQASLLDLPTAGLRGNTHFPFTDRNNVQVASLLSDFLGKHGLDQNESKLAAALE
modifications: the amino acid sequence of ALT02
- specific enzyme activity, bensulfuron-methyl [1]: 1.8 µmol/min/mg
- specific enzyme activity, chlorimuron-ethyl [1]: 2.8 µmol/min/mg
- specific enzyme activity, metsulfuron-methyl [1]: 2.1 µmol/min/mg
- specific enzyme activity, thifensulfuron-methyl [1]: 28.8 µmol/min/mg
- specific enzyme activity, tribenuron-methyl [1]: 1.9 µmol/min/mg
- specific enzyme activity, sulfometuron-methyl [2]: 2.0 µmol/min/mg

B4: ALT03: ALT03 protein (362 amino acids), SEQ ID NO: 35; unmutated herbicide tolerant protein (protein)
chain: METDNVELAQSKRKVVLAEQGSFYIGGRTVTGPGKFDPSKPVIPYSNEGATFYINQMYVNFQAPVRPRGLPLVFWHGGGLTGHIWESTPDGRPGFQTLFVQDRHTVYTIDQPGRGRGNIPTFNGPFGQLEEESIVNTVTGNSSKEGAWVRDRLGPAPGQFFENSQFPRGYEDNYFKEMGFSPSISSDEIVDAVVKLVTHIGPCVLVTHSASGVLGMRVATHAKNVRGIVAYEPATSIFPKGKVPEIPPLADKKSQIFPPFEIQESYFKKLAKIPIQFVFGDNIPKNPKSAYWFLDWWRVTRYAHSLSLEAINKLGGQASLLDLPTAGLRGNTHFPFTDRNNVQVASLLSDFLGKHGLDQNES
modifications: the amino acid sequence of ALT03
- specific enzyme activity, bensulfuron-methyl [1]: 1.6 µmol/min/mg
- specific enzyme activity, chlorimuron-ethyl [1]: 2.6 µmol/min/mg
- specific enzyme activity, metsulfuron-methyl [1]: 1.9 µmol/min/mg
- specific enzyme activity, thifensulfuron-methyl [1]: 26.0 µmol/min/mg
- specific enzyme activity, tribenuron-methyl [1]: 1.7 µmol/min/mg
- specific enzyme activity, sulfometuron-methyl [2]: 1.8 µmol/min/mg

B5: ALT04: ALT04 protein (350 amino acids), SEQ ID NO: 51; unmutated herbicide tolerant protein (protein)
chain: MSKRKVVLAEQGSFYIGGRTVTGPGKFDPSKPVIPYSNEGATFYINQMYVNFQAPVRPRGLPLVFWHGGGLTGHIWESTPDGRPGFQTLFVQDRHTVYTIDQPGRGRGNIPTFNGPFGQLEEESIVNTVTGNSSKEGAWVRDRLGPAPGQFFENSQFPRGYEDNYFKEMGFSPSISSDEIVDAVVKLVTHIGPCVLVTHSASGVLGMRVATHAKNVRGIVAYEPATSIFPKGKVPEIPPLADKKSQIFPPFEIQESYFKKLAKIPIQFVFGDNIPKNPKSAYWFLDWWRVTRYAHSLSLEAINKLGGQASLLDLPTAGLRGNTHFPFTDRNNVQVASLLSDFLGKHGLDQ
modifications: the amino acid sequence of ALT04
- specific enzyme activity, bensulfuron-methyl [1]: 1.5 µmol/min/mg
- specific enzyme activity, chlorimuron-ethyl [1]: 2.4 µmol/min/mg
- specific enzyme activity, metsulfuron-methyl [1]: 1.8 µmol/min/mg
- specific enzyme activity, thifensulfuron-methyl [1]: 24.7 µmol/min/mg
- specific enzyme activity, tribenuron-methyl [1]: 1.6 µmol/min/mg
- specific enzyme activity, sulfometuron-methyl [2]: 1.7 µmol/min/mg

B6: ALT04M3: herbicide tolerant protein, SEQ ID NO: 63; ALT04 mutated at positions 35, 36, 131, 133 and 137 (protein)
chain: MSKRKVVLAEQGSFYIGGRTVTGPGKFDPSKPVIRASNEGATFYINQMYVNFQAPVRPRGLPLVFWHGGGLTGHIWESTPDGRPGFQTLFVQDRHTVYTIDQPGRGRGNIPTFNGPFGQLEEESIVNTVTANVSKERAWVRDRLGPAPGQFFENSQFPRGYEDNYFKEMGFSPSISSDEIVDAVVKLVTHIGPCVLVTHSASGVLGMRVATHAKNVRGIVAYEPATSIFPKGKVPEIPPLADKKSQIFPPFEIQESYFKKLAKIPIQFVFGDNIPKNPKSAYWFLDWWRVTRYAHSLSLEAINKLGGQASLLDLPTAGLRGNTHFPFTDRNNVQVASLLSDFLGKHGLDQ
modifications: the amino acid sequence of the ALT04M3
- specific enzyme activity, bensulfuron-methyl [1]: 0.6 µmol/min/mg
- specific enzyme activity, chlorimuron-ethyl [1]: 34.6 µmol/min/mg
- specific enzyme activity, metsulfuron-methyl [1]: 3.8 µmol/min/mg
- specific enzyme activity, thifensulfuron-methyl [1]: 16.0 µmol/min/mg
- specific enzyme activity, tribenuron-methyl [1]: 3.0 µmol/min/mg
- specific enzyme activity, sulfometuron-methyl [2]: 1.0 µmol/min/mg

B7: ALT01: ALT01 protein (398 amino acids), SEQ ID NO: 1; unmutated herbicide tolerant protein (protein, listed as Methylophilus sp.)
chain: MGTALLTGTSAASPVLAAGTGAIGIATLPLSTATAPAGTAAVGLAGSLALVVLAGGGSPTIGGATVTGPGLPAPSLPVIPTSAGGATPTIAGMTVAPGAPVAPAGLPLVPTHGGGLTGHITGSTPAGAPGPGTLPVGAAHTVTTIAGPGAGAGAIPTPAGPPGGLGGGSIVATVTGASSLGGATVAAALGPAPGGPPGASGPPAGTGAATPLGMGPSPSISSAGIVAAVVLLVTHIGPCVLVTHSASGVLGMAVATHALAVAGIVATGPATSIPPLGLVPGIPPLAALLSGIPPPPGIGGSTPLLLALIPIGPVPGAAIPLAPLSATTPLATTAVTATAHSLSLGAIALLGGGASLLALPTAGLAGATHPPPTAAAAVGVASLLSAPLGLHGLAGAGS
- specific enzyme activity, bensulfuron-methyl [1]: 1.7 µmol/min/mg
- specific enzyme activity, chlorimuron-ethyl [1]: 2.7 µmol/min/mg
- specific enzyme activity, metsulfuron-methyl [1]: 2.0 µmol/min/mg
- specific enzyme activity, thifensulfuron-methyl [1]: 27.4 µmol/min/mg
- specific enzyme activity, tribenuron-methyl [1]: 1.8 µmol/min/mg
- specific enzyme activity, sulfometuron-methyl [2]: 1.9 µmol/min/mg
